The source of these data is the supplement of paper PMC9170038.

This series deals with MS2 coat protein. As to the kind of experiment: apparent KD of MS2 coat protein; designed switch direction (-1 OFF switch, 1 ON switch): -1; higher = weaker reporter binding. An outline of the steps: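 Normalised cluster fluorescence was curve-fitted, and each design's median over clusters is its apparent KD. Before this, SNAP-549-labelled MS2 coat protein was titrated from 0.7 or 1.5 nM, doubling to 3 µM, over RNA switches transcribed on Illumina chips by stalled E. coli RNA polymerase. Titrations had no input, 200 uM small-molecule ligand, or an oligonucleotide input, and steps lasted 0.8–1.5 h (lowest) to 10–20 min (highest).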

The mark [1] stands for this setting: input ligand: microRNA oligo, concentration not stated.
The mark [2] stands for this setting: Eterna round: R95, input ligand: microRNA oligo, concentration not stated.
Where [3] appears, read: Eterna round: R95, input ligand: FMN 200 uM.
Setting [4] is: Eterna round: R95, input ligand: none.

In the case of “AAUAAUCAUGUAGGAUAUGCGUGGCAAAGCUAUGCAGAAGGACAUGAGGAUCACCCAUGUUCUAGCGUCUGAGUACAGAUGCUA [Mat - Exclusion NG 1 - Mod of JL - D81] (Eterna round: R96, puzzle: Exclusion NG 1)”, the “apparent KD of MS2 coat protein” value is 399 nM (input ligand: FMN 200 uM), 32.1 nM under setting [1] and 47.4 nM (input ligand: none).
Regarding “CCCGAGCUAGGAUAUGCACAAGGUAUCGAUCCACAACACACACAUGAGGAUCACCCAUGUAGAAGGAGCAUCGU [Eternabot (L2) Solution 27] (Eterna round: R97, puzzle: Exclusion 2)”, the “apparent KD of MS2 coat protein” value runs as follows: (input ligand: FMN 200 uM) 165 nM; (input ligand: none) 77.9 nM.
Take “UAUCAUCAUGUAGGAUAUGCGUGGCAAAGCUAUGCAGAAGGACAUGAGGAUCACCCAUGUUCUAGCGUCUGAGUACAGAUGCUA [Mat - Exclusion NG 1 - Mod of JL - D75] (Eterna round: R96, puzzle: Exclusion NG 1)”: the “apparent KD of MS2 coat protein” value (input ligand: FMN 200 uM) was found to be 278 nM, the “apparent KD of MS2 coat protein” value under setting [1] is 66.4 nM and the “apparent KD of MS2 coat protein” value (input ligand: none) was found to be 83.7 nM.
With “GGAUCGAAUGUGAGGAUAUGCUGGUCCUUGGAUCAGCAGAAGGCACAUGAGGAUCACCCAUGUGAUACCGAUCC [Eli bmx4 4.70] (Eterna round: R97, puzzle: Brourd's mod of Exclusion 4)”, the “apparent KD of MS2 coat protein” value runs as follows: (input ligand: FMN 200 uM) 255 nM; (input ligand: none) 381 nM.
Regarding “GCAGCGUAGUCUAAAUAAGACAUACAUGAGGAUCACCCAUGUCAGGAUAUGGUCUGGAUUACAGGCCAGAAGGGACAAAGCUGC [Eli exng3 - 002] (Eterna round: R96, puzzle: Exclusion NG 3)”, the “apparent KD of MS2 coat protein” value by setting is: (input ligand: FMN 200 uM) 21.4 nM; under setting [1], 16.5 nM; (input ligand: none) 17.7 nM.
As for “CGUCUGUGAGGAUAUGGUAUCGUUUACAUGAGGAUCACCCAUGUUACAUGGGACUAGAGACUAGAAGGUACGAACG [EX5 #49] (Eterna round: R97, puzzle: Exclusion 5)”, the “apparent KD of MS2 coat protein” value worked out at 212 nM (input ligand: FMN 200 uM) and 320 nM (input ligand: none).
The matching figures for “ACACGGAUAGGAUAUACUUGAGGAUCACCCAAGUGGAACCGCUUGUCCCGAUCCUAGAGUAGAAGGAUCAAAUA [Anusxebiat] (Eterna round: R97, puzzle: Exclusion 3)”: 149 nM and 44.3 nM.
The matching figures for “ACUAGUCUAAAGGAUAUGGACCUGAACAAAUGGCCAGAAGGUUAAACAUGAGGAUCACCCAUGUAGGUGCGCCA [Eternabot (Original) Solution 18] (Eterna round: R97, puzzle: Exclusion 6)”: 31.2 nM and 27.2 nM.
Regarding “UUUGUUGUUGUGAGGAUAUCGUUGUUAUUUUGAAACGAGAAGGCACAUGAGGAUCACCCAUGUUUGUUGUUGGU [JR_BMOE4_Sub059] (puzzle: Brourd's mod of Exclusion 4)”, the “apparent KD of MS2 coat protein” value under setting [2] was 48.8 nM.
For the sequence “GGUUGACAUGAGGAUCACCCAUGUGAGGAUAUGCGAGAGAAAAAAGUGAGGAAGAAGAGCAGAAGGCGCUGUCG [salish99-ex1_r3_012] (puzzle: Exclusion 1)”, the “apparent KD of MS2 coat protein” value came out at 99.4 nM under setting [3], 134 nM under setting [2] and 117 nM under setting [4].
In the case of “CGAUAGAUAGGAUAUACAUGAGGAUCACCCAUGUGAACGGGUAGAUUUGUCAACUGAAGUAGAAGGAUCGUCGC [Eternabot (L2) Solution 64] (Eterna round: R97, puzzle: Exclusion 3)”, the “apparent KD of MS2 coat protein” value came out at 132 nM (input ligand: FMN 200 uM) and 761 nM (input ligand: none).
With “AAAAGUCCGGAGGAUAUCCACAAGCUCGGGAAAGGAGAAGGCCGGACAUGAGGAUCACCCAUGUGUCUUCUUGC [Rebila] (puzzle: Exclusion 6)”, the “apparent KD of MS2 coat protein” value under setting [3] turned out to be 358 nM, the “apparent KD of MS2 coat protein” value under setting [2] is 63 nM and the “apparent KD of MS2 coat protein” value under setting [4] was 94.5 nM.
With “UAUAUAUAGUAAGGAUAUGUAUUAAUUUUUUAAACAGAAGGUACUGACAUGAGGAUCACCCAUGUUUUAGUGUGGGCAUGUAGA [JMF's solution 86] (Eterna round: R96, puzzle: Exclusion NG 1)”, the “apparent KD of MS2 coat protein” value under setting [1] worked out at 65.7 nM.
Take “UAUGUGUGAGGAUAUGGUAAAGAUAAGAUGAUGAAAGAACUCCAGAAGGCACAUGAGGAUCACCCAUGUAGAUA [Mat - Exclusion 4 - Mod of JL - D23] (puzzle: Exclusion 4)”: the “apparent KD of MS2 coat protein” value under setting [2] stood at 20.4 nM.
As for “GUGCAAUGAGGAUAUACGUUGGUGAACAUCUGUGUGCUCCUACAUGAGGAUCACCCAUGUAGAAGGCAUGUCAC [LRO-Excl2-18] (Eterna round: R96, puzzle: Exclusion 2)”, the “apparent KD of MS2 coat protein” value reads like this: (input ligand: FMN 200 uM) 18.3 nM; under setting [1], 10.8 nM; (input ligand: none) 14.1 nM.
